The test relates to Jurkat T cells. Format: cell-based, human. The settings on record: IL-2 production level in treated group compared to control group; 48 hours treatment, then anti-CD3/anti-CD28 12 hours. The text has this:
Two preliminary screens were designed and performed.
To construct “blood chemical compound library for cell-based screening purposes, components such as antibodies that are difficult to distinguish due to a wide variety, and some supplements that only function at a whole organism level including fish oils and herbs were excluded. Physiological ranges of serum levels of individual blood chemicals are available in the human metabolome database (https://hmdb.ca/) and applied in the experimental design. For first screen 1a, Jurkat T cells were treated with blood chemical library for 48 hours and then activated with 2.5 μg/mL anti-CD3 and 0.5 μg/mL anti-CD28 antibodies for another 12 hours, followed by measurement of IL-2 level in medium supernatant using ELISA kit (Biolegend). For first screen 1b, 1×10^5 PD-1^+ Jurkat T cells were co-cultured with 2×10^4 H596 (PD-L1^+) cells in a well of 96-well plate for 60 hours, and then activated with 2.5 μg/mL anti-CD3 and 0.5 μg/mL anti-CD28 antibodies for another 12 hours, followed by measurement of IL-2 level in medium supernatant using ELISA kit. Please also refer to Resources Table and Table 1-2 for more details.

B1: LIPASE FROM PORCINE PANCREAS (protein, UniProt P00591 1-450, looked up)
Pancreatic triacylglycerol …: SEVCFPRLGCFSDDAPWAGIVQRPLKILPWSPKDVDTRFLLYTNQNQNNYQELVADPSTITNSNFRMDRKTRFIIHGFIDKGEEDWLSNICKNLFKVESVNCICVDWKGGSRTGYTQASQNIRIVGAEVAYFVEVLKSSLGYSPSNVHVIGHSLGSHAAGEAGRRTNGTIERITGLDPAEPCFQGTPELVRLDPSDAKFVDVIHTDAAPIIPNLGFGMSQTVGHLDFFPNGGKQMPGCQKNILSQIVDIDGIWEGTRDFVACNHLRSYKYYADSILNPDGFAGFPCDSYNVFTANKCFPCPSEGCPQMGHYADRFPGKTNGVSQVFYLNTGDASNFARWRYKVSVTLSGKKVTGHILVSLFGNEGNSRQYEIYKGTLQPDNTHSDEFDSDVEVGDLQKVKFIWYNNNVINPTLPRVGASKITVERNDGKVYDFCSQETVREEVLLTLNPC
In the case of B1, the “Relative changed percentage (%)” value is −9.403%.
